# T1: Soluble Starch Synthase, prey clone aa 68-270 (Oryza sativa, UniProt A2Y9M4 68-270)
# T1 construct: prey; AD fusion; input trait library; also called OsSSS; PN19701
# T1 sequence: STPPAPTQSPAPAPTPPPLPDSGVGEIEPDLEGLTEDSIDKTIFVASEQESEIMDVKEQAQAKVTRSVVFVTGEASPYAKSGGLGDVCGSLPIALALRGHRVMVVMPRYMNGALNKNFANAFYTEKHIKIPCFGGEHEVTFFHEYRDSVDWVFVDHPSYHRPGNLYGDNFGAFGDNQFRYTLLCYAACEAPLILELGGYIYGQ
# T2: Soluble Starch Synthase, prey clone aa 97-263 (Oryza sativa, UniProt A2Y9M4 97-263)
# T2 construct: prey; AD fusion; output trait library; also called OsSSS; PN19701
# T2 sequence: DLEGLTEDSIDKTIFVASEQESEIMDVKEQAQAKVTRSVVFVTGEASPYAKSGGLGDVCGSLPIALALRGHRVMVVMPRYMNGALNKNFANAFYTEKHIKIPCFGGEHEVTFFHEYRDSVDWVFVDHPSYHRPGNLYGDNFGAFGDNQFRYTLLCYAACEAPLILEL
# T3: Hypothetical Protein 003118-3674 Similar to Lycopersicon esculentum Calmodulin, bait fragment aa 75-149 (Oryza sativa, UniProt Q84VG0 75-148)
# T3 construct: bait; also called PN20551
# T3 sequence: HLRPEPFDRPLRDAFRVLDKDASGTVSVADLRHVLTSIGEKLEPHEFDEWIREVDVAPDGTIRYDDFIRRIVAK
# T4: Auxin induced protein-like PN24061, prey clone aa 34-236 (Oryza sativa, UniProt A2XLV9 34-236)
# T4 construct: prey; AD fusion; output trait library
# T4 sequence: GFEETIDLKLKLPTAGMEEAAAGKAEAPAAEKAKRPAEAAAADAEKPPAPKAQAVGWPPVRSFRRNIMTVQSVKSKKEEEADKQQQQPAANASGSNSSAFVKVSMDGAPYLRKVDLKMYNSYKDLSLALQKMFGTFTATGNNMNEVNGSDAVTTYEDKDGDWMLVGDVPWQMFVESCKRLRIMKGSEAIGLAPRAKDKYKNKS
# T5: Elicitor responsive protein, bait fragment aa 23-120 (Oryza sativa, UniProt Q0JBH9 23-120)
# T5 construct: bait; also called OsERP; PN20696
# T5 sequence: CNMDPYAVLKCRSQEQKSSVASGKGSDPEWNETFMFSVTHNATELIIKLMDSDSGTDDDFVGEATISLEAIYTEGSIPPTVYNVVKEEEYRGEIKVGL
# T6: Pyruvate orthophosphate dikinase-like PN20674, prey clone aa 64-263 (Oryza sativa, UniProt Q6AVA8 64-263)
# T6 construct: prey; AD fusion; input trait library
# T6 sequence: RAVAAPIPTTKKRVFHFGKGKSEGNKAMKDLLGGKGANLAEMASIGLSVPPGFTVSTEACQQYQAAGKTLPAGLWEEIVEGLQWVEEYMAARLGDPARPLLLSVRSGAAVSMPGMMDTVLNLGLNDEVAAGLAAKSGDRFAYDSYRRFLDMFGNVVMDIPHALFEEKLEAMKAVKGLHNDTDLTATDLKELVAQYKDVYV
# T7: Pyruvate orthophosphate dikinase-like PN20674, prey clone aa 71-298 (Oryza sativa, UniProt Q6AVA8 71-298)
# T7 construct: prey; AD fusion; input trait library
# T7 sequence: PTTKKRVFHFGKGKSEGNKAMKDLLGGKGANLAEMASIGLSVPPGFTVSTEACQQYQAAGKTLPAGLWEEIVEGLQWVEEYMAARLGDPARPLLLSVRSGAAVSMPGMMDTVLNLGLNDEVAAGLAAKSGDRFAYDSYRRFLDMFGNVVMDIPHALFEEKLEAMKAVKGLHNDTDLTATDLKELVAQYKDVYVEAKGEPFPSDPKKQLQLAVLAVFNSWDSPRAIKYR
# T8: O. sativa Serine/Threonine Protein Phosphatase PP2A-2, Catalytic Subunit, bait fragment aa 150-308 (Oryza sativa, UniProt A2XN40 150-307)
# T8 construct: bait; also called OsPP2A-2; PN20254
# T8 sequence: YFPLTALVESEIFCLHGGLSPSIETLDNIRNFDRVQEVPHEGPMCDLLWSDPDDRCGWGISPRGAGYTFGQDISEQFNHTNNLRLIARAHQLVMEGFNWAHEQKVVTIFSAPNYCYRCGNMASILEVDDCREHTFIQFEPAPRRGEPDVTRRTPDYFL
# T9: Hypothetical Protein 006819-2510, Similar to Hemerocallis Senescence-Related Protein 5, bait fragment aa 1-150 (Oryza sativa)
# T9 construct: bait; also called Os006819-2510; PN20462
# T9 chain: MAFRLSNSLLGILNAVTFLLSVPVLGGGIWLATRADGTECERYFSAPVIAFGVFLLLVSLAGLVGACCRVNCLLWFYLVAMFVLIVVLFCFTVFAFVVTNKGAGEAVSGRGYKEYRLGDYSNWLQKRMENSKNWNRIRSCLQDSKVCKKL
# B1: OsSGT1, bait fragment aa 200-368 (other)
# chain: QMLSVSIEVPGEEPYHFQPRLFSKIIPEKSRYQVLSTKVEIRLAKAEQITWTSLDYDKKPKAVPQKIIPPAESAQRPSYPSSKSKKDWDKLEAEVKKEEKEEKLEGDAALNKFFRDIYSDADEDMRRAMMKSFVESNGTVLSTNWKDVGSKKVEGSPPDGMELKKWEY
# notes: bait; also called PN20285
# Tests used:
# Test in all cases: yeast two-hybrid
# [1] = target: T1, Soluble Starch Synthase, prey clone aa …
# [2] = target: T2, Soluble Starch Synthase, prey clone aa …
# [3] = target: T3, Hypothetical Protein 003118-3674 …
# [4] = target: T4, Auxin induced protein-like PN24061, …
# Description: (§1) Yeast carrying the target gene construct was combined with yeast carrying the activation domain library. The two yeast strains mated to form diploid yeast and were plated on media that selected for expression of one or more Ga14p-responsive reporter genes. Thus, both hybrid proteins (i.e., the target “bait” protein and the activation domain “prey” protein) were expressed in a yeast reporter strain where an interaction between the test proteins results in transcription of the reporter genes […]. Colonies that arose after incubation were selected for further characterization. The activation domain plasmid was isolated from each colony obtained in the two-hybrid search. The sequence of the insert in this construct was obtained by sequence analysis (e.g., Sanger's dideoxy nucleotide chain termination method; see Ausubel et al., 1988, including updates up to 2002). Thus, the identity of positives obtained from these searches was determined by sequence analysis against proprietary and public (e.g., GENBANK®) nucleic acid and protein databases.
# (§2) The rice SGT1 protein shares 74 and 75% amino acid sequence similarity with two Arabidopsis thaliana SGT1 homologs and 45% amino acid sequence similarity with Saccharomyces cerevisiae SGT1. In yeast, SGT1 is required for cell-cycle progression at the G1/S-phase and G2/M-phase transitions. In A. thaliana, SGT1b interacts with Rar1 and mediates disease resistance. Thus, in plants, SGT1 likely controls processes that are fundamental to disease resistance and development. The rice OsSGT1 protein was chosen as a bait for these interaction studies based on its potential relevance to disease resistance and development.
# [5] = target: B1
# Description: as §1, §2
# [6] = target: T5, Elicitor responsive protein, bait …
# [7] = target: T6, Pyruvate orthophosphate dikinase-like …
# [8] = target: T7, Pyruvate orthophosphate dikinase-like …
# [9] = target: T10, O. sativa Chloroplast Ribulose Bisphosphate Carboxylase, Large Chain, prey clone aa 287-462 (Oryza sativa, UniProt P0C510 287-462)
# T10 construct: prey; AD fusion; input trait library; also called OsRBCL; PN23426
# [10] = target: T8, O. sativa Serine/Threonine Protein …
# [11] = target: T9, Hypothetical Protein 006819-2510, …
# T10 sequence (P0C510 287-462): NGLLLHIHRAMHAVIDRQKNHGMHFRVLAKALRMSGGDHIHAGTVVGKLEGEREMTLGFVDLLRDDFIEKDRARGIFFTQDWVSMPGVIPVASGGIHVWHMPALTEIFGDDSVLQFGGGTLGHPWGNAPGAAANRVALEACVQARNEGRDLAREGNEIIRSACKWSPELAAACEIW
binder,measurement,setting,value
"O. sativa Calreticulin Precursor, bait fragment aa 250-425 (other, bait; text says OsCRTC has 424 aa; also called OsCRTC; PN20544) PKEIPDPDAKKPEAGADEEDGEWTAPTIRNPEYKGPWKQKKIKNPNYQGKWKPPMIATPDFQDDPYIYAFDSLKSIGIELWQVKSGTLFDNILITDDAALAKTFAEETWAKHKDAEKAAFDEAEKKKEEEEAAKAGEDDDDLDDEDAEDEDKADEKADSDAEDGKDSDDEKHDEL",binding result,[1],binds
same,binding result,[2],binds
"Oryza sativa Putative Myosin, prey clone aa 824-935 (other, prey; AD fusion; output trait library; also called OsPN23878) SLARKHRAAIILQRNLKCWLARRYFVNIRKASVVIQSGIRGCLVRRCAGNVDLLNVLREFESKKEAEGDQILIKASFLAELQRRILKAEATVREKDEENEMLQQRLQQYENR",binding result,[3],binds
B1,binding result,[4],binds
"HSP70-like PN23949, prey clone aa 244-418 (other, prey; AD fusion; output trait library) HKLKSSLILMPMVSLLLLLLIRVLGRNRISPSPALSTLPKDEVERMVEEADKFAQEDKEKRDAIDTKNQADSVVYQTEKQLKELGDKVPAPVKEKVDAKLNELKEAIAGGSTQSMKDAMAALNEEVMQIGQAMYNQQPNAGAAGPTPGADAGPTSSGGKGPNDGDVIDADFTDSN",binding result,[5],binds
"Receptor-like protein kinase-like PN31085, prey clone aa 378-553 (other, prey; AD fusion; output trait library) NGTISDSLGNLSELSDINLIGNNLTGHVPDSLTSLRLLQKLDLSGNDLTGPLPTFSPSVKVNVTGNLNFNGTAPGSAPSKDTPGSSSSRAPTLPGQGVLPENKKKRSAVVLATTIPVAVSVVALASVCAVLIFRKKRGSVPPNAASVVVHPRENSDPDNLVKIVMVNNDGNSSSTQ",binding result,[6],binds
"Elicitor responsive protein, bait fragment aa 50-145 (other, bait; also called OsERP; PN20696) PEWNETFMFSVTHNATELIIKLMDSDSGTDDDFVGEATISLEAIYTEGSIPPTVYNVVKEEEYRGEIKVGLTFTPEDDRDRGLSEEDIGGWKQSS",binding result,[7],binds
same,binding result,[8],binds
"O. sativa 14-3-3 Protein Homolog GF14-c, bait fragment aa 1-150 (other, bait; also called OsGF14-c; PN12464) MSREENVYMAKLAEQAERYEEMVEYMEKVAKTVDVEELTVEERNLLSVAYKNVIGARRASWRIVSSIEQKEEGRGNEEHVTLIKEYRGKIEAELSKICDGILKLLDSHLVPSSTAAESKVFYLKMKGDYHRYLAEFKTGAERKEAAESTM",binding result,[9],binds
"O. sativa Glutelin CAA33838, prey clone aa 5-155 (other, prey; AD fusion; output trait library; also called OsCAA33838; PN24775) VFSRFSIYFCVLLLCHGSMAQLFNPSTNPWHSPRQGSFRECRFDRLQAFEPLRKVRSEAGVTEYFDEKNELFQCTGTFVIRRVIQPQGLLVPRYTNIPGVVYIIQGRGSMGLTFPGCPATYQQQFQQFSSQGQSQSQKFRDEHQKIHQFRQ",binding result,[10],binds
"Novel Protein PN24162, Porin-like, Voltage-Dependent Anion Channel Protein, prey clone aa 28-164 (other, prey; AD fusion; output trait library; also called OsPN24162) QKLTVSTVSSSGVGLTSTAVKKGGLYTLDVSSVYKYKSTLVDVKVDTESNISTTLTVFDVLPSTKLVTSVKLPDYNSGKVEMQYFHENASFATAVGMKPSPVVEFSGTAGAQGLAFGAEAGFDTATGKFTKYSAAIG",binding result,[10],binds
"Hypothetical Protein 011994-D16, Similar to Z. mays DnaJ protein, prey clone aa 99-368 (other, prey; AD fusion; output trait library; also called Os011994-D16; PN20618) FGPSFGGGGSSRGRRQRRGEDVIHPLKVSLEDLYNGTSKKLSLSRNVLCAKCKGKGSKSGASMRCPGCQGSGMKITIRQLGPSMIQQMQQPCNECKGTGESINEKDRCPGCKGEKVIQEKKVLEVHVEKGMQHNQKITFPGEADEAPDTVTGDIVFVLQQKDHSKFKRKGDDLFYEHTLSLTEALCGFQFVLTHLDNRQLLIKSNPGEVVKPDQFKAINDEGMPMYQRPFMKGKLYIHFTVEFPDSLAPEQCKALEAVLPPKPASQLTEM",binding result,[10],binds
"Oryza sativa Putative Myosin, prey clone aa 685-888 (other, prey; AD fusion; output trait library; also called OsPN23878) IYEQGLVLQQLKCCGVLEVVRISRSGYPTRMTHQKFARRYGFLLLEDVASQDPLSVSVAILHQFNILPEMYQVGYTKLFFRTGQIGKLEDTRNRTLHGILRVQSCFRGHQARRHARERIRGVLALQSFIRGENARKMYSSLARKHRAAIILQRNLKCWLARRYFVNIRKASVVIQSGIRGCLVRRCAGNVDLLNVLREFESKKE",binding result,[11],binds
"Novel Protein PN29037, prey clone aa 73-165 (other, prey; AD fusion; input trait library; also called OsPN29037) VVFDKDGVLEQIGEGKGYVDMSTVDAATSCKISEAIKQKGGAFVEAPVSGSKKPAEDGQLVILAAGDKVLYDDMVPAFDVLGKKSFFLGEIGN",binding result,[11],binds

# — US20060235215A1 (published 2006)
